Our source for the protein stability index values is the supplement of paper PMC9732359.

This data set in a line: protein stability index of a GFP-peptide fusion (yeast GPS) (PSI 1-4); higher = more stable; sorted into four equal gates, so the index is relative within each strain. Summed up: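 For each peptide, the protein stability index sums the read frequency in every gate after multiplying it by the gate number. Read frequencies came from plasmids that were PCR-amplified from each gate and Illumina-sequenced, with reads assigned to strains by barcodes. The gates were four equal bins of GFP/Cherry fluorescence ratio applied to mid-log yeast in leucine-free medium carrying a pooled library of tiled 17-residue yeast protein peptides fused downstream of GFP on a Cherry-expressing plasmid.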

± gives the uncertainty stated by the source.

On to EKLLQQDREITNWARTT [MED8], for which the protein stability index by setting is: (doa10∆) 2.37 ± 0.09; (pdr5∆) 1.77 ± 0.087; (san1∆) 2.48 ± 0.089; (ubr1∆) 2.06 ± 0.11.

On to KLPKVYKRSIVRNYKPL [SWI1], for which the protein stability index is, setting by setting: (doa10∆) 2.8 ± 0.086; (pdr5∆) 2.99 ± 0.089; (san1∆) 2.89 ± 0.074; (ubr1∆) 2.96 ± 0.12.

As for KISLRDICLKLNLDSEQ [RPN3], the protein stability index is, setting by setting: (doa10∆) 3.46 ± 0.12; (pdr5∆) 3.34 ± 0.093; (ubr1∆) 3.32 ± 0.11.

NIVDSSAAGNKAIPTFS [YIL149C/MLP2] gave a protein stability index (doa10∆) of 2.31 ± 0.066, a protein stability index (pdr5∆) of 2.44 ± 0.077, a protein stability index (san1∆) of 3 ± 0.057 and a protein stability index (ubr1∆) of 2.44 ± 0.059.

As for SLQDRSSLVRRNSVKLL [YCS4], the protein stability index runs as follows: (doa10∆) 2.02 ± 0.055; (pdr5∆) 2.12 ± 0.049; (san1∆) 1.94 ± 0.062; (ubr1∆) 1.56 ± 0.027.

Consider FILADAGLEITSDNLLT [RPP1B], for which the protein stability index turned out to be 2.55 ± 0.052 (doa10∆), 2.77 ± 0.054 (pdr5∆), 2.65 ± 0.076 (san1∆) and 2.73 ± 0.049 (ubr1∆).

AGILRGYDIFLNVVLDD [SMX2] gave a protein stability index (doa10∆) of 3.14 ± 0.055, a protein stability index (pdr5∆) of 2.38 ± 0.06, a protein stability index (san1∆) of 2.51 ± 0.084 and a protein stability index (ubr1∆) of 2.75 ± 0.051.

Consider PKNKLVPTLEAKRDYII [FAS1], for which the protein stability index by setting is: (doa10∆) 1.71 ± 0.071; (pdr5∆) 1.59 ± 0.1; (san1∆) 2.63 ± 0.098; (ubr1∆) 2.15 ± 0.11.

For KNTQSPQTPLVEPVTER [SNU114], the protein stability index reads like this: (pdr5∆) 2.87 ± 0.15; (san1∆) 2.72 ± 0.097; (ubr1∆) 3.01 ± 0.13.

Regarding VTIIPLDKIYTRPISSQ [SMC2], the protein stability index by setting is: (doa10∆) 1.66 ± 0.067; (pdr5∆) 1.55 ± 0.084; (san1∆) 1.64 ± 0.082; (ubr1∆) 1.25 ± 0.045.

As for EKLAVSALEQAIIYQRG [YGL100W/SEH1], the protein stability index was found to be 2.04 ± 0.097 (doa10∆), 2.38 ± 0.11 (pdr5∆), 2.11 ± 0.096 (san1∆) and 2.4 ± 0.12 (ubr1∆).

As for AFVSVYSKNNPNLLFSM [PRP8], the protein stability index came out at 1.93 ± 0.063 (doa10∆), 2.74 ± 0.058 (pdr5∆), 2.61 ± 0.064 (san1∆) and 2.71 ± 0.038 (ubr1∆).

In the case of ELIKNYITARIMAKRPF [FAS1], the protein stability index is 2.93 ± 0.13 (doa10∆), 2.58 ± 0.26 (pdr5∆), 3.03 ± 0.046 (san1∆) and 2.78 ± 0.21 (ubr1∆).

NLSEARLVIKEALVERR [RPB4]: the protein stability index (doa10∆) worked out at 3.33 ± 0.28, the protein stability index (pdr5∆) was found to be 2.75 ± 0.13, the protein stability index (san1∆) stood at 2.83 ± 0.21 and the protein stability index (ubr1∆) was found to be 3.3 ± 0.13.

On to VKALRNVPGVETANVAS [RPL4A], for which the protein stability index is, setting by setting: (doa10∆) 2.76 ± 0.069; (pdr5∆) 3.15 ± 0.062; (san1∆) 2.98 ± 0.051; (ubr1∆) 3.01 ± 0.048.

For the sequence LDPLARVSKDKKSGSLT [FAS2], the protein stability index is 3.31 ± 0.1 (doa10∆), 3.2 ± 0.096 (pdr5∆), 3.22 ± 0.084 (san1∆) and 3.14 ± 0.16 (ubr1∆).

TKIPQIGDKFASRHGQK [RPB2] came in with a protein stability index (doa10∆) of 1.57 ± 0.073, a protein stability index (pdr5∆) of 2.3 ± 0.07, a protein stability index (san1∆) of 2.77 ± 0.084 and a protein stability index (ubr1∆) of 1.83 ± 0.039.

Consider SLTTVWAEHLSDEVKRR [RPL3], for which the protein stability index reads like this: (doa10∆) 2.87 ± 0.13; (pdr5∆) 2.85 ± 0.18; (ubr1∆) 3 ± 0.18.

As for FISYHDKYLCMLKTCVF [NUT1], the protein stability index by setting is: (doa10∆) 2.67 ± 0.057; (pdr5∆) 2.95 ± 0.064; (san1∆) 3.03 ± 0.061; (ubr1∆) 2.13 ± 0.042.

As to QLEEDENITNKVTEKVL [CSI1], the protein stability index was 3.2 ± 0.088 (doa10∆), 3.2 ± 0.09 (pdr5∆), 3.33 ± 0.057 (san1∆) and 3.13 ± 0.055 (ubr1∆).

As for MDNPRKLSKILRTEYGW [SNU114], the protein stability index is, setting by setting: (doa10∆) 3.11 ± 0.068; (pdr5∆) 2.99 ± 0.081; (san1∆) 2.91 ± 0.059; (ubr1∆) 2.94 ± 0.066.

For the sequence NFPEASKLSEHLNHYIL [YCG1], the protein stability index is 2.53 ± 0.29 (doa10∆), 2.51 ± 0.11 (pdr5∆), 2.66 ± 0.17 (san1∆) and 2.53 ± 0.09 (ubr1∆).

With LVKDRKFLREVFVDGEA [RPO21], the protein stability index reads like this: (doa10∆) 3.1 ± 0.14; (pdr5∆) 3.46 ± 0.27; (san1∆) 2.62 ± 0.1; (ubr1∆) 2.85 ± 0.21.

On to IDIPLDEQAFYNKDKAE [RPC37], for which the protein stability index reads like this: (doa10∆) 3.27 ± 0.18; (pdr5∆) 3.38 ± 0.18; (san1∆) 2.85 ± 0.24; (ubr1∆) 3.26 ± 0.14.

For the sequence SLYPPPPPYVKFFTQSN [MED7], the protein stability index by setting is: (doa10∆) 1.97 ± 0.043; (pdr5∆) 2.17 ± 0.048; (san1∆) 2.16 ± 0.072; (ubr1∆) 2.35 ± 0.031.

In turn, TEHVRQNAKLLANLIRD [RRP6] registered a protein stability index (doa10∆) of 1.54 ± 0.046, a protein stability index (pdr5∆) of 1.93 ± 0.08, a protein stability index (san1∆) of 2.39 ± 0.14 and a protein stability index (ubr1∆) of 1.62 ± 0.086.

Regarding QIRACKDLKHIIYYKFN [PRP8], the protein stability index was 1.72 ± 0.037 (doa10∆), 1.73 ± 0.037 (pdr5∆), 1.84 ± 0.056 (san1∆) and 1.59 ± 0.042 (ubr1∆).

NKITNQGVTCLHLAVGK [NAS6] returned a protein stability index (doa10∆) of 1.4 ± 0.2, a protein stability index (pdr5∆) of 1.83 ± 0.057 and a protein stability index (ubr1∆) of 2.01 ± 0.075.

For PDISRAVINIRDDGKRE [RPO31], the protein stability index runs as follows: (doa10∆) 2.78 ± 0.083; (pdr5∆) 2.29 ± 0.07; (san1∆) 2.74 ± 0.11; (ubr1∆) 2.77 ± 0.063.

In the case of KAAFLGSEVRLRDDTLP [COR1], the protein stability index amounted to 2.54 ± 0.06 (doa10∆), 2.98 ± 0.057 (pdr5∆), 2.93 ± 0.061 (san1∆) and 2.68 ± 0.05 (ubr1∆).

In the case of LSILKGDYSQATVLSRK [RPN5], the protein stability index is, setting by setting: (doa10∆) 3.08 ± 0.07; (pdr5∆) 3.02 ± 0.06; (san1∆) 3.03 ± 0.075; (ubr1∆) 2.72 ± 0.056.

As to GAAGAWMMNGALQILNS [FAS2], the protein stability index runs as follows: (doa10∆) 1.48 ± 0.046; (pdr5∆) 1.65 ± 0.064; (san1∆) 2.08 ± 0.12; (ubr1∆) 1.68 ± 0.057.

With GGGAARRQAVDVSPLRR [RPS5], the protein stability index is 2.28 ± 0.1 (doa10∆), 1.76 ± 0.056 (pdr5∆), 2.15 ± 0.11 (san1∆) and 1.85 ± 0.093 (ubr1∆).

As for MKQLKFFKPLDYITEAV [SNU114], the protein stability index is, setting by setting: (doa10∆) 2.12 ± 0.043; (pdr5∆) 2.05 ± 0.052; (san1∆) 1.86 ± 0.082; (ubr1∆) 1.92 ± 0.036.
